Among the data in patent US20260327294 (published 2026) are Kd and EC50 values, retold here.

Assay [1] addresses RSV A2 pre-F (RSV A2). Description: BLI. For orientation: In BLI a coated tip is dipped into the sample, and binding shifts an interference pattern.
The target in assay [2] is RSV A2 pre-F (RSV A2). The experiment in a line: ELISA. In general terms: ELISA stands for enzyme-linked immunosorbent assay.
Assay [3] addresses RSV A2 pre-F (RSV A2). Description: BLI. This is another data set of the same source.
Assay [4] has as its target RSV A2 pre-F (RSV A2). Description: ELISA. The source holds these as a separate data set.

As a reminder, the Kd is the free concentration of one partner at which half of the binding sites on the other are occupied at equilibrium, for simple one-to-one binding. Low values mean tighter binding, high ones weaker binding. The term EC50 denotes the concentration at which the effect is half-maximal. Low values mean an effect from little substance, high ones a need for much substance.

Like-named read-outs stand apart in the source and are kept apart here.

B1: F6-141 (antibody, V domains shown)
VH: QVQLAQSGAEVRRPGTSVKVSCRSSAYDFIDDSIHWVRQAPGQGLEWMGRIDPSGDTTTYAPQFQVRITLTRDTSTSTASMELNRLTSQDTAMYYCVAYERATTLAGVGASDVWGQGTWVTVSS
VL: DIVMTQSPLSLSVTPGEPASISCRSSQSLLYRDGYNYLDWYLQKPGQSPQLLLYFASYRASGVPDRFSGSGSGTDFTLTITRVEPEDVGIYYCMQSLQTPFTFGPGTKLDFK
In the case of B1, the Kd in the assay with RSV A2 pre-F [1] is under 0.001 nM. Also, the EC50 with RSV A2 pre-F [2] came out at 0.0166 µg/mL.

B2: F6-63 (antibody, V domains shown)
VH: QVQVVESGGGVVEPGGSLSLSCAASGFSFKMHAMHWVRQAPGKGLEWVAFIPYDGSSQYYADSVKGRFTIYRDNFKNTLYLQMNSLRVEDTSLYYCARGGEEGAWSWIGYNSYMDVWGRGTAVTVSS
VL: QSALTQPASVSGSPGQSITISCSGTSSDVGGYDYVCWYQKHPGESPRLIIYDVSRRPSGVSNRFSGSKSGNTASLTISGLQAEDEADYSCSSYTSSNTLIFGGGTKLTVL
In the assay with RSV A2 pre-F [3], B2 came in with a Kd of 0.783 nM. It took 0.0161 µg/mL to reach a half-maximal effect in the assay with RSV A2 pre-F [4] (EC50).

B3: F6-70 (antibody, V domains shown)
VH: QVQLVESGGGVVQPGRSLRLSCAASGFTFKNFAMHWVRQAPGKGLEWVAAVSYDGTSKYQADSVKGRFTISRDNSKNTLYLQMNSLRAEDTAVYYCARVESSGSGHYSYLGYFYCMDVWGKGTTVTVSS
VL: QSALTQPASVSASPGQSITISCTGTRNDVGGYEYVSWYQQHPDKAPKLMIFDVSNRPSGVSNRFSGSKSGNTASLTISGLQAEDEADYYCSSYTINNTLVFGGGTKVTVL
In the case of B3, the Kd with RSV A2 pre-F [1] is 2.11 nM. The molecule further gave an EC50 with RSV A2 pre-F [2] of 0.0585 µg/mL.

B4: F6-227 (antibody, V domains shown)
VH: QVQLQQSGPGLVKPSETLSLACSVSGGSMSDFYWSWIRQSPGTGLEWIGYVHHSGKVNYNPSLKARVTMSLDTSKYLLSLNLASMTAADSAVYYCAATSAFVDSSSYSPPYFDFWGQGTLITVSS
VL: DIQLTQSPSSLSASVGDRVTITCQASHDITNYLNWYQQTPGKAPRLLIYVATNLETGVPSRFSGSGSGTHFTLTISSLQPEDSATYYCQQYDNLPITFGGGTRVEIR
B4: the Kd with RSV A2 pre-F [1] was determined as 0.169 nM. The same molecule yielded an EC50 in the assay with RSV A2 pre-F [2] of 0.0226 µg/mL.

B5: F6-38 (antibody, V domains shown)
VH: QVQLEESGGGVVQPGRSLTLSCAASGFTLKNYAIHWVRQAPGKGLEWVAVTAYDGFTSYYADSVKSRITISRDNSKNTAYLHLNNVRDDDAAFYYCARGGEGAFSWLGYLQYMDVWGRGTTVAVSS
VL: QSTLTQPASASGSPGQSITISCTGTSNDIGSYTYVSWYQHHPGKAPKLMIYDVNERPSGISHRFSGSKSGNTASLTISGLQPEDEADYYCNSYTINNTLKFGGGTRLTVL
Consider B5, for which binding in the assay with RSV A2 pre-F [3] was put at a Kd of 1.38 nM. Also, the midpoint of the response with RSV A2 pre-F [4], the EC50, lay at 0.00712 µg/mL.

B6: F6-153 (antibody, V domains shown)
VH: QVQLQQWGAGLLRPSETLSLTCAVSGVSLSGDYLTWIRQTPGKGLEWIGEINHSGSTNYNPSLKSRVTISVETSKNHFSLKMRSVTAADSALYYCARGWEYCHGTTCYSKAFDIWGQGTLVTVSS
VL: DIQMTQSPSSLSASVGDRVTITCQASQDISNYLIWYQQKPGRAPKLLIFDASKLEKGVPPRFSGSGSGTYFTFTISSLQPEDFATYYCQQFHNLPVTFGGGTKLETK
As to B6, the Kd in the assay with RSV A2 pre-F [1] was under 0.001 nM. This molecule also registered an EC50 with RSV A2 pre-F [2] of 0.018 µg/mL.

B7: F6-208 (antibody, V domains shown)
VH: QVQLEESGGGVVQPGTSLRLSCSSSGVTRNTYAVHWVRQVPGKGLEWLAATSYDGTSKYYPENGHGRVSISKEYSTNMVYLEIYNLRPEDTAVYFCAKGPQGIYSYIGYFYYMDVWGKGTTVTVSS
VL: QSALTQPASVSGSPGQSITLSCTGSRDDVGDYDYVSWYQHHPGKAPRLIIYDVTSRPSGVSPRFSGSKSGNTASLTISGLQADDEADYYCNSYTSSNSVVFGGGTKVTVL
In the case of B7, the affinity in the assay with RSV A2 pre-F [1], expressed as Kd, was 0.0533 nM. In addition, in the assay with RSV A2 pre-F [2], the concentration for a half-maximal effect (EC50) turned out to be 0.0198 µg/mL.

B8: F6-207 (antibody, V domains shown)
VH: QITLKESGPTLLKPTQTLTLTCTFSGFSLTTTGVAVGWVRQPPGKALEWLALIYWDDDKRYSPSLKSRVTITKDTSKNQVLLAMTDMDPVDTATYYCAHFDYGDPEVVALFEYSYYMDVWGKGITVTVSS
VL: QSVLTQPPSVSGTPGQRVTISCSGSSSNIGSNYVYWYQHLPGTAPKLLIYTNNRRPSGVPDRFSGSKSGTSASLAVSGLRSEDEADYFCAVWDDSVGGHWVFGGGTKLTVL
With B8, in the assay with RSV A2 pre-F [1], the Kd was 0.291 nM. Also, the midpoint of the response in the assay with RSV A2 pre-F [2], the EC50, lay at 0.0354 µg/mL.

B9: F6-133 (antibody, V domains shown)
VH: EVQVVESGGGLVQPGGSLRLSCAASSFSVTGSYMTWVRQAPGKGLESVSLIYSTGSTYYADSVKGRFVISRDDSKNILFLQMNNLRVEDTGVYFCARLGPAGGSWSWEFYGLDVWGQGTTVTVFS
VL: CVQMTQSPSFLSASVGDRVTISCRASQGTTSYLAWYQQKPGKAPKLLIYGVSTLQTGVPSRFSGSGSGTDFTLTISNLQPEDFATYYCQQVNIFPYTFGPGTKVEIK
As to B9, in the assay with RSV A2 pre-F [1], the Kd was found to be 0.0669 nM. In the assay with RSV A2 pre-F [2], this molecule registered an EC50 of 0.0494 µg/mL.

B10: F6-124 (antibody, V domains shown)
VH: QVQLVQSGTEVKKPGASVKISCKASGYTFTGNAINWVRQAPGQGLEWLGWISVNNGNTKYVQKFQGRVTMTTDTSTSTAYMELRSLGSDDTAVYYCAREVVNYGSGSLNFDSWGQGTLVTVSS
VL: SYELTQPPSVSVSPGQTVSISCSGDKLGNDYVSWYQQKPGQSPVLVIYEDSKRPSGIPERFSGSNSGNTATLTISGTQAMDESDYYCQAWDGSTVIFGGGTKLTVL
B10: the Kd in the assay with RSV A2 pre-F [1] is under 0.001 nM. The same molecule returned a concentration for a half-maximal effect (EC50) with RSV A2 pre-F [2] of 0.0147 µg/mL.

B11: F6-61 (antibody, V domains shown)
VH: QVTLRQSGPALVKPTQTLTLTCTFSGFSLSTRGMCVNWIRQPPGKALEWLARIDWDDDKYYTTSLKTRLTISKDTAKNHVVLSMTNMDPVDTATYYCARIRCYDYVWGDDEVFDIWGQGTMVSVSS
VL: QSVLTQPPSASGTPGQSVTISCSGSTSNIGSNNVNWYQQLPGAAPKLVIHTNDQRPSRVPDRFSGSTSGTSASLAISGLQSEDEADYYCAAWDDSLNGLLFGGGTKLTVL
In the case of B11, in the assay with RSV A2 pre-F [1], the affinity, expressed as Kd, was 3.25 nM. The molecule also showed an EC50 with RSV A2 pre-F [2] of 0.0613 µg/mL.

B12: F6-88 (antibody, V domains shown)
VH: QVQLVQSGAEVKKPGASVRVSCGASGNSFTRHGFSWVRQAPGQGLEWIGLISAHKSNTIYAQKFQGRVTVTTDTSTSTAYMELRSLRSDDTAVYYCVRDVTVVTDVGSGYDFPMDVWGQGTTVTVSS
VL: QSVLTQSPSASGTPGQRVTISCSGSNSNIGGDYVHWYQQVPGTAPRLLIYNTNQRPSGVPDRFSGSKSGTSGSLAISGLRSEDEADYYCATWDDSLNGWVFGGGTKLTVL
B12: the Kd with RSV A2 pre-F [3] came to 0.86 nM. This molecule registered an EC50 with RSV A2 pre-F [4] of 0.0169 µg/mL.

B13: F6-215 (antibody, V domains shown)
VH: QEQSVQSGPEVKKPGASVKVSCRASEFTFSTDFIHWVRQAPGQGLEWMGRITPSDGTTTYAPKFQGRVAVTRDPSTKNVYIQLTRLKSEDTAVYYCVAYDRATTSAGAGATDIWGQGTLVTVSS
VL: DIVMTQSPLSLPVTPGEPASISCRSSQSLLHGDGYNYLDWYLQRPGRSPQLLIYLGSHRASGVPDRFSGSGSGTDFTLRISRVEAEDVGIYYCMQGLQTPFTFGPGTKVDIK
As to B13, the Kd in the assay with RSV A2 pre-F [1] turned out to be 0.815 nM. Further, in the assay with RSV A2 pre-F [2], the EC50 stood at 0.0289 µg/mL.

B14: F6-213 (antibody, V domains shown)
VH: QEQLVQSGAEVKRPGTSVKVSCKASGYAFTDYSIHWVRQAPGVGLEWMGKIYPGDGHALYAQNFQGRVTLTRDTSTASVYMELRSLRSQDTAVYYCVAYERATTLAGAGASDIWGQGTMVTVSS
VL: DIVMTQSPLSLPVTPGEPASISCRSSQSLLQSDGYNYMDWYLQKPGRSPQLLIYLGSHRASGVPDRFSGSGSGTDFTLRISRVKAEDVGIYYCMQSLQSPFTFGPGTKVDIK
B14: the Kd with RSV A2 pre-F [1] came out at 1.29 nM. Moreover, a half-maximal effect with RSV A2 pre-F [2] (EC50) was put at 0.0298 µg/mL.

B15: F6-172 (antibody, V domains shown)
VH: EEQLVESGGGLVQPGGSLKLSCAASGFILSDSTVHWVRQASGRGLEWVGRIANGYATSYAASVKGRFTISTDDSGNTAYLEMNSLKTEDTAVYYCTSRSVVVTDVGAGRDDYWGQGTLVTVSS
VL: DIVMTQSPLSLPVTPGEPASISCRSSQSLLHRNGYNYLDWYLQKPGQSPQLLIWLGSNRASGVPDRFSGSGSGTDFTLTISRVEAEDVGVYYCMQDLQTPPTFGGGTKVEIM
Regarding B15, the Kd in the assay with RSV A2 pre-F [1] was under 0.001 nM. The molecule also registered an EC50 in the assay with RSV A2 pre-F [2] of 0.0183 µg/mL.

B16: F6-115 (antibody, V domains shown)
VH: QLQLHQRGAGLLKPSETLSLTCDVYGGSVSDDEWTWIRQSPGKGLEWIGQIDRTGSSNYNPSLRSRVTISPDTSNNQFSMSLTSVTAADTALYFCARGGLVVTDVGRGWDAFDVWGQGTMVTVSS
VL: DIQMTQSPSSVSASVGDRITITCRASQHINNWLAWYQQKPGEAPKLLIYAASTLQRGVPSRFSGSGSGTRFTLTITSLQPEDFASYFCQQGDSFPLTFGGGTKVEIK
Regarding B16, in the assay with RSV A2 pre-F [1], the Kd was under 0.001 nM. In the assay with RSV A2 pre-F [2], this molecule returned an EC50 of 0.0117 µg/mL.

B17: F6-210 (antibody, V domains shown)
VH: QERLAQSGTEVKKPGASVKVSCRALGYTFSDYSIHWVRQAPRQGLEWMGKINTSGGTTTYAQKFQARVTLTSDTSTSTASMELSSLKIEDTAVYYCVAYERATTLAGAGASDIWGQGTLVTVSS
VL: DIVMTQSPLSLPVTPGEPASISCRSSQSLLHSDGYNYLDWYLQKPGQSPHLLIYLGSNRASGVPDRFSGSGSGTDFTLKITRVEPEDVGVYYCMQSLQTPFTFGPGTKVDVK
On to B17, for which the Kd with RSV A2 pre-F [1] is 0.106 nM. In the assay with RSV A2 pre-F [2], this molecule displayed an EC50 of 0.0281 µg/mL.

B18: F6-132 (antibody, V domains shown)
VH: QEQSVQSGAEVKKPGASVKVSCRASEFTFSTDFIHWVRQAPGQGLEWMGRITPSDGTTTYAQKFQGRVTMTRDPSTNTVYIELRRLKSEDTAVYYCVAYDRVTTSAGTGASDIWGQGTMVTVSS
VL: DIVMTQSPLSLPVTPGEPASISCRSSQSLLHGDGYNYLDWYLQKPGRSPQLLIYLGSHRASGVPDRFSGSGSGTDFTLRISRVEAEDVGIYYCMQGLQTPFTFGPGTKVDIK
In the assay with RSV A2 pre-F [1], B18 came in with a Kd of under 0.001 nM. In the assay with RSV A2 pre-F [2], this molecule yielded an EC50 of 0.0167 µg/mL.

B19: F6-27 (antibody, V domains shown)
VH: QEQLMESGGDVVRPGTSLTLSCKASGFAFRSHALHWVRQAPGKGLEWVSVISYDGGHTNSADSLEGRFTVSRDNSKNILYLQMNSLRTEDTAVYFCARSEGSYRSWPGYFYYMDVWGNGTTVTVSS
VL: QSALTQPASVSGSPGQSITISCIGTSSDVGGYYYVSWYQQHPGRAPKLIIFDVTDRPSGVSSRFSGSQSGNTASLTISGLQPEDEADYYCNSYSSSTIPYVFGSGTKVTVL
Turning to B19, binding with RSV A2 pre-F [3] was characterised by a dissociation constant (Kd) of 0.671 nM. The EC50 with RSV A2 pre-F [4] is 0.00987 µg/mL.
